Experimental data from publication PMC13466294, “Nucleolaron1511 and Nucleolaron1510 Facilitate Effective Intracellular Delivery of Azami Green Protein in HeLa Cells” (International Journal of Molecular Sciences, 2026).

Assays:
[1] = tested on: HeLa cells; assay: Cellular uptake of TAMRA-labeled Nuc1510 by fluorescence microscopy; type: cell-based; settings: 5 µM in DMEM with 10% FBS, 1 h, 4 h or overnight (any incubation condition)
Protocol: To examine the intrinsic cell-penetrating ability of Nuc1510, HeLa cells were treated with TAMRA-labeled Nuc1510 prepared in medium supplemented with 10% FBS and analyzed by fluorescence microscopy at 1 h, 4 h, and overnight incubation time points.
HeLa cells were seeded at 2 × 10^4 cells per well in 8-well chamber slides (Millicell EZ Slide, Sigma-Aldrich, St. Louis, MO, USA; or µ-Slide 8 Well glass-bottom, ibidi, Gräfelfing, Germany) and allowed to adhere for 24 h. For assessment of intrinsic cell-penetrating ability, the culture medium was replaced with free TAMRA or TAMRA–Nuc1510 at 5 µM prepared in DMEM supplemented with 10% FBS. For assessment of cargo delivery, cells were treated with AG, AG–Nuc1511, AG–Nuc1510, or AG–TAT at 1, 2, or 3 µM prepared in DMEM with 10% FBS. All cargo delivery treatments were performed at 37 °C, and the highest concentration (3 µM) was additionally tested at 4 °C to assess the contribution of energy-dependent uptake pathways.
TAMRA–Nuc1510 samples were incubated for 1 h, 4 h, or overnight at 37 °C, whereas all AG–CPP samples were incubated overnight only. […] Fluorescence imaging was performed using a Keyence BZ-X800 (Keyence, Osaka, Japan) digital fluorescence microscope. […]

[2] = tested on: HeLa cells; assay: Cell viability by MTT assay; type: cell-based; settings: 24 h
Protocol: To assess the cytotoxic potential of Nuc1511 and Nuc1510, HeLa cells were treated with AG–Nuc1511 or AG–Nuc1510 at concentrations of 1, 3, 5, and 10 µM for 24 h, and cell viability was quantified using the MTT assay (Figure 4). AG–Nuc1511 caused a gradual concentration-dependent decline in viability, reaching approximately 78% at 10 µM, which was statistically significant relative to the untreated control. […] Taken together, both fusion proteins were well tolerated at concentrations up to 5 µM, with cytotoxicity becoming apparent only at 10 µM.
HeLa cells were seeded at 1 × 10^4 cells per well in 96-well microplates (Nunc^TM MicroWell^TM; Thermo Fisher Scientific) and allowed to adhere overnight. The culture medium was replaced with AG–Nuc1511 or AG–Nuc1510 at 1, 3, 5, or 10 µM prepared in DMEM supplemented with 10% FBS. Cell viability was assessed by MTT assay. Following 24 h incubation, treatment solutions were removed and cells were washed with PBS. A mixture of 50 µL MTT solution (Fujifilm) (5 mg/mL in PBS) and 50 µL Opti-MEM I Reduced Serum Medium (Thermo Fisher Scientific) was added to each well, and plates were incubated at 37 °C for 3 h. The medium was then removed, and formazan crystals were dissolved by addition of 150 µL MTT solvent (4 mM HCl, 0.1% NP-40 substitute in isopropanol), followed by 30 min agitation on an orbital shaker protected from light, with additional pipetting to ensure complete dissolution. Absorbance was measured at 590 nm. All conditions were performed in triplicate.

[3] = tested on: four cell lines; settings: CPP fused to EGFP, across four cell lines; ref 45 (Patel et al.); cited from earlier work
Protocol: To quantify intracellular delivery, flow cytometry was performed following a stringent surface-depletion protocol. Cells were washed with an acidic glycine-NaCl solution to disrupt electrostatic interactions between surface-bound AG–CPP and the plasma membrane, then treated with trypsin, which both detaches cells from the culture plate and cleaves CPP sequences at arginine and lysine residues—amino acids abundant in all constructs tested—thereby eliminating residual surface-associated fluorescence. This protocol ensures that the measured fluorescence predominantly reflects int ...

Substance: 5(6)-carboxytetramethylrhodamine [Free TAMRA]
- Intracellular TAMRA fluorescence [1]: no detectable intracellular fluorescence

Substance: MKDHLIHNHHKEEHAHAHNKDYDIPTTHHAHHSTENLYFQGSSGSSGMSVIKPEMKIKLCMRGTVNGHNFVIEGEGKGNPYEGTQILDLNVTEGAPLPFAYDILTTVFQYGNRAFTKYPADIQDYFKQTFPEGYHWERSMTYEDQGICTATSNISMRGDCFFYDIRFDGTNFPPNGPVMQKKTLKWEPSTEKMYVRDGVLKGDVNMALLLEGGGHYRCDFKTTYKAKKDVRLPDAHKVDHRIEILKHDKDYNKVKLYENAVARYSMLPSQAKGLQQGGTGGGGSKVLSRVVQLCREKLTRRRRSNRR [AG–Nuc1510, monomeric Azami Green genetically fused at its C-terminus via a linker to Nuc1510]
- Reduction of viability ([2]; 10 µM): approximately 50%
- Effect on viability ([2]; 1, 3, or 5 µM, Welch's t-test against untreated control): did not significantly reduce viability

Substance: MKDHLIHNHHKEEHAHAHNKDYDIPTTHHAHHSTENLYFQGSSGSSGMSVIKPEMKIKLCMRGTVNGHNFVIEGEGKGNPYEGTQILDLNVTEGAPLPFAYDILTTVFQYGNRAFTKYPADIQDYFKQTFPEGYHWERSMTYEDQGICTATSNISMRGDCFFYDIRFDGTNFPPNGPVMQKKTLKWEPSTEKMYVRDGVLKGDVNMALLLEGGGHYRCDFKTTYKAKKDVRLPDAHKVDHRIEILKHDKDYNKVKLYENAVARYSMLPSQAKGLQQGGTGGGGSTLKERCLQVVRSLVKKKRTLRKNDRKKR [AG–Nuc1511, monomeric Azami Green genetically fused at its C-terminus via a linker to Nuc1511]
- Viability (%) ([2]; 10 µM, relative to untreated cells (100%), n = 3, 10 µM): approximately 78%

Substance: Penetratin
- Uptake efficiency relative to TAT [3]: performed comparably to TAT
